Source: publication PMC7041945, “Misfolded proteins bind and activate death receptor 5 to trigger apoptosis during unresolved endoplasmic reticulum stress” (eLife, 2020)

What was measured:
Type in all cases: cell-based, Homo sapiens
[1] = test system: GADD34 mRNA in HCT116 cells; experiment: qPCR of GADD34 transcript; conditions: norm to GAPDH
[2] = test system: PARP / caspase 8 / caspase 3 in HCT116 cells; experiment: Western blot of HCT116 lysates (PARP, caspase 8 and caspase 3 cleavage, DR5 level)
Protocol: Media and cells for each sample were collected by cell scraping into cold PBS followed by a subsequent wash with 1 ml of cold PBS. The cell pellet was then resuspended in cold lysis buffer (30 mM HEPES pH 7.2, 150 mM NaCl, 1% Triton X100, 1x Roche protease inhibitor) and lysed via needle shearing on ice. Samples were centrifuged at 1000xg for 5 min, and the supernatants were mixed with sample buffer to a final concentration of 1% SDS, 62.5 mM Tris-HCl pH 6.8, 10% glycerol, 0.1% bromophenol blue, 50 mM DTT. Samples were boiled at 95°C and loaded on SDS-PAGE gels (GenScript). Samples were subsequently transferred onto nitrocellulose membranes, blocked with Odyssey buffer (Licor) for 1 hr at RT, and probed with primary antibodies diluted 1:1000 (unless otherwise specified) in Licor Odyssey buffer supplemented with 0.1% Tween 20% at 4°C overnight.
Bound primary antibodies were probed by HRP-conjugated secondary antibodies (Amersham, Piscataway, NJ, 1:10000) using enhanced chemiluminescence (SuperSignal; Thermo Scientific, Waltham, MA) detected by standard film or through the ChemiDoc XRS+ Imaging System (Bio-Rad).

[3] = test system: DR5; experiment: GFP immunoprecipitation: DR5 (FADD, caspase 8) recovered with GFP-tagged protein, Western blot; conditions: for fraction of DR5 IP'ed: GFP IP
Protocol: 15 cm dishes were seeded with 4 million HCT116 cells and allowed to recover for 18 hr prior to transfection. Samples were then transfected for 24 hr with the GFP-tagged ER trafficked protein, cytosolic GFP, or empty vector. To harvest apoptotic and living cells for each sample, all media and washes were collected. Cells were scraped in 2 ml of cold PBS and combined with the media and washes. Samples were centrifuged to pellet cells, washed with 1 ml cold PBS, and flash frozen in liquid N2 prior to lysis.
The cell pellets were resuspended in 750 μl of 30 mM HEPES pH 7.2, 150 mM NaCl, 1% Triton X-100 with 1x Roche protease inhibitor cocktail (if used subsequently for caspase glo 8 assay) or with 5x Roche protease inhibitor cocktail (if used for immunoblotting). The cells were lysed by mechanical shearing through a 25G needle for 13–15 plunges followed by incubation on ice for 30 min. The lysate was centrifuged at 2000xg for 5 min to remove debris and then incubated with 30 μl of GFP-Trap magnetic agarose beads (Chromotek gtma-20) for 4 hr at 4°C. The beads were then washed with 750 μl of lysis buffer for 10 min at 4°C for three rounds.
For Western blots, samples were eluted by adding 35 μl of non-reducing SDS gel loading buffer (50 mM Tris-HCl (pH 6.8), 2% SDS, 0.1% bromophenol blue, 10% glycerol) and incubated for 10 min at 70°C. The beads were then magnetically removed from the eluted sample before adding DTT to a final concentration of 25 mM. The entire sample was loaded onto the gel and immunoblotted for DR5, caspase 8, and GFP, in that order.

[4] = test system: caspase 8 in HCT116 lysates; experiment: Size-exclusion chromatography of cell lysates with caspase 8 activity; conditions: relative to GFP; 24 hr
Protocol: Size-exclusion fractionation of cell lysate was performed as previously described in [Lu et al. (2014)] with minor modifications.
In a 15 cm dish, 4 million HCT116 cells were seeded 18 hr prior to transfection (see Transient transfections for protein expression). 24 hr post-transfection, cells were harvested by collecting all media (to collect detached, dying cells) and scraping the dish in 3 ml of cold PBS. The cell suspension was centrifuged at 500xg to pellet the sample. Cells were washed with an additional 1 ml of cold PBS, pelleted, and flash frozen in liquid N2 prior to lysis.
Cells were resuspended in 600 μl of lysis buffer (30 mM HEPES pH 7.2, 150 mM NaCl, 1% Triton X-100) with 1x protease inhibitor (Roche) and lysed through a 25G needle with 10 passes. […]
For the caspase 8 activity assay, 10 μl of each fraction was incubated with 10 μl of the caspase glo 8 substrate (Promega #PRG8200) in a 384-well white walled plate (Corning 3574) for 45 min at RT before measuring luminescence on a Spectramax-M5 plate reader.
For Western blots, every three fractions were pooled for a total of 1.5 ml and subjected to TCA precipitation to concentrate the protein content. Samples were then analyzed by SDS-PAGE and immunoblotted for GFP and DR5.

[5] = test system: DR5; experiment: DR5 immunoprecipitation (blotted for DR5, MPZ-GFP, FADD); conditions: HCT116 transfected with MPZ-GFP
Protocol: IP for DR5 was performed as previously described in [Lu et al. (2014)], using anti-DR5 mAb 5C7-conjugated agarose beads gifted by David Lawrence of the Ashkenazi lab at Genentech Inc.

[6] = test system: XBP1 mRNA in HCT116 cells; experiment: RT-PCR for Xbp1 mRNA splicing; conditions: HCT116, 24 hr
Protocol: Cells were grown in 6-well plates and harvested with 0.5 ml of TRIzol reagent (Life Technologies) per manufacturer's protocol to extract RNA. […] The reverse transcription product was diluted to 200 μl with 10 mM Tris-HCl pH 8.2 and used at 1:100 dilution for subsequent RT-PCR reactions. 2 μl of cDNA was added to 0.2 μM of forward and reverse primers ([…]; Hs_XBP1_Rev: [NT]), 0.2 mM of each dNTP, 0.5 units of Taq DNA polymerase (Thermo Scientific). The reaction was set at an annealing temperature of 60.5°C with an extension time of 30 s for 26 cycles.

B1: pRK CHOP (protein, UniProt P35638 1-169, looked up)
DNA damage-inducible …: MAAESLPFSFGTLSSWELEAWYEDLQEVLSSDENGGTYVSPPGNEEEESKIFTTLDPASLAWLTEEEPEPAEVTSTSQSPHSPDSSQSSLAQEEEEEDQGRTRKRKQSGHSPARAGKQRMKEKEQENERKVAQLAEENERLKQEIERLTREVEATRRALIDRMVNLHQA
modifications: expression plasmid
avg. fold induction, GADD34 ([1]; HCT116, 62 ng): 1.117
avg. fold induction, GADD34 ([1]; HCT116, 125 ng): 1.442
avg. fold induction, GADD34 ([1]; HCT116, 250 ng): 1.579
avg. fold induction, GADD34 ([1]; HCT116, 500 ng): 2.1696

B2: MPZ-GFP: myelin protein zero with a C-terminal monomeric EGFP, expressed from plasmid (protein)
chain: IVVYTDREVHGAVGSRVTLHCSFWSSEWVSDDISFTWRYQPEGGRDAISIFHYAKGQPYIDEVGTFKERIQWVGDPRWKDGSIVIHNLDYSDNGTFTCDVKNPPDIVGKTSQVTLYVFEKVPTRYGVVLGAVIGGVLGVVLLLLLLFYVVRYCWLRRQAALQRRLSAMEKGKLHKPGKDASKRGRQTPVLYAMLDHSRSTKAVSEKKAKGLGESRKDKK
modifications: left off: monomeric EGFP, C-terminal, kept
notes: myelin protein zero with a C-terminal monomeric EGFP, expressed from plasmid
DR5 int (bg subtracted) ([2]; DR5 input levels, Rep 2): 739.08
normalized DR5 to GAPDH ([2]; DR5 input levels, Rep 2): 0.2156
DR5 int (bg subtracted) ([2]; DR5 input levels, Rep 3): 357.944
normalized DR5 to GAPDH ([2]; DR5 input levels, Rep 3): 0.2423
DR5 levels normalized to GAPDH, average ([2]; DR5 input levels, average of rep 2 and rep 3, Stdev in row below): 0.229
caspase 8 and caspase 3 cleavage, high expression ([2]; HCT116, 24 hr): cleavage of caspase 8and its downstream target caspase 3
caspase 8 and 3 cleavage/activity, low expression level ([2]; low levels of MPZ-GFP expression, proper plasma membrane localization): did not induce caspase 8 or 3 activity
fraction of DR5 IP'ed ([3]; run 2018-02-27): 0.1051
fraction of DR5 IP'ed ([3]; sheet 2019-12-12, replicate 2): 0.0582
fraction of DR5 IP'ed ([3]; sheet 2019-12-12, replicate 3): 0.1364
DR5 complex proteins in GFP immunoprecipitates ([3]; HCT116, 24 hr post-transfection): detected DR5, FADD, and caspase 8
fraction IP'ed ([3]; Rep 1 (first series)): 0.1051
fraction IP'ed ([3]; Rep 2 (first series)): 0.0582
fraction IP'ed ([3]; Rep 3 (first series)): 0.1364
% IP'ed ([3]; average of all replicates): 9.991%
fraction IP'ed, average ([3]; average of all replicates): 0.09991
beads (*diluton factor) ([3]; Rep 1 (first series)): 1453332
beads (*diluton factor) ([3]; Rep 2 (first series)): 11158310
beads (*diluton factor) ([3]; Rep 3 (first series)): 12501020
input (*dilution factor) ([3]; Rep 1 (first series)): 13824070
input (*dilution factor) ([3]; Rep 2 (first series)): 191711370
input (*dilution factor) ([3]; Rep 3 (first series)): 91647520
Mean ± SEM (fraction IP'ed) ([3]; unpaired t test sheet, GFP n=5, MPZ n=3, INS n=2, RHO n=2): 0.09991 ± 0.02272, n=3
95% confidence interval (difference between means) ([3]; vs. GFP, fraction IP'ed): 0.04255 to 0.1369
Difference between means ([3]; vs. GFP, fraction IP'ed, ± SEM): 0.0897 ± 0.01927
caspase 8 activity in high MW size exclusion fractions [4]: increased caspase 8 activity in high-molecular w8 (MW) fractions
DR5 pull-down [5]: enriched for FADD and MPZ-GFP
XBP1 mRNA splicing [6]: initiated a few hours post-transfection with MPZ-GFP and later attenuated
